Experimental data as given in US12564623B2, “Methods and compositions for treating cancer” (The University of Chicago, priority 2017, dated 2026).

Legend:
MDA-MB-231 cells = assay: Cancer cell killing, Calcein AM staining; type: cell-based, human
E0771 cancer cells = assay: E0771 tumors in Rag2-/- versus wild type mice; type: in vivo, C57BL/6 mice; conditions: 11.6 μg intratumorally once/day for 5 days
Description: The inventors therefore explored whether ELANE-mediated cancer cell killing could positively influence the immune cells in the tumor. Rag2^−/− mice in C57BL/6 background (no adaptive immunity) and wild type (wt) C57BL/6 mice were both ordered from the Jackson laboratory. E0771 cancer cells were injected into both mouse models. Once tumors reached ˜100 mm^3. ELANE (11.6 μg) or HAS (11.6 μg) were delivered intratumorally once/day for 5 days. Tumor volume was assessed by calipers. Kaplan-Meier curve was plotted and the logrank test (Mentel-Cox method) was used for mouse survival analysis. End point of survival is defined as tumor volume >1000 mm^3.
Adaptive immune cells contribute to ELANE's therapeutic efficacy. Rag2-deficient (Rag2−/−) mice on the C57BL/6 background (no adaptive immunity) and wild type (wt) C57BL/6 mice were injected with E0771 cancer cells. Once tumors reached ˜100 mm^3. ELANE (11.6 μg) or HSA (11.6 μg) were delivered intra-tumorally once/day for 5 days. (FIG. 18A) Tumor volume was assessed by calipers. (FIG. 18B) Kaplan-Meier curve was plotted and the logrank test (Mentel-Cox method) was used for survival analysis. End point of survival is defined as tumor volume >1000 mm^3.

Cancer cells = assay: ELANE uptake and killing with endocytosis inhibitor Dynasore; type: cell-based; conditions: ELANE 30 nM, Dynasore 80 μM, 6 hours
Description: (FIG. 9A) Cancer cells were treated with ELANE (100 nM) in the presence or absence of a broad endocytosis inhibitor Dynasore (80 μM) for 30 mins. ELANE catalytic activity in cell lysates was assessed by a chromogenic substrate assay. (FIG. 9B) Cancer cells were treated with ELANE (30 nM) in the presence or absence of Dynasore (80 μM) for 6 hours. Cell viability was examined by Calcein AM staining. *, p<0.05, Student's t-test.

[1] = test system: E0771, B16F10, or LLC1 cancer cells; assay: Tumor growth after intratumoral delivery, syngeneic models; type: in vivo, C57BL/6 mice; conditions: 11.6 μg intratumorally once/day for 5 days
Description: ELANE activity is required for its anti-tumor function in vivo. (FIG. 14A) Catalytic activity of ELANE or ELANE that had been inactivated by treatment with 100 nM PMSF (PMSF-ELANE) was determined by a chromogenic substrate. (FIG. 14B) E0771, B16F10, or LLC1 cancer cells were injected into C57BL/6 mice. Once tumors reached ˜100 mm^3, human serum albumin (HSA, 11.6 μg), ELANE (11.6 μg), or PMSF-ELANE (11.6 μg) were delivered intratumorally once/day for 5 days. Tumor volume was assessed by calipers.

B1: neutrophil elastase (protein, listed as Homo sapiens)
chain: MTLGRRLACLFLACVLPALLLGGTALASEIVGGRRARPHAWPFMVSLQLRGGHFCGATLIAPNFVMSAAHCVANVNVRAVRVVLGAHNLSRREPTRQVFAVQRIFENGYDPVNLLNDIVILQLNGSATINANVQVAQLPAQGRRLGNGVQCLAMGWGLLGRNRGIASVLQELNVTVVTSLCRRSNVCTLVRGRQAGVCFGDSGSPLVCNGLIHGIASFVRGGCASGLYPDAFAPVAQFVNWIDSIIQRSEDNPCPHPRDPDPASRTH
notes: purified native ELANE
cancer cell killing activity of purified protein (MDA-MB-231 cells; increasing doses, 5h): highest cancer cell killing activity
toxicity to cancer cells, ELANE versus PPE (MDA-MB-231 cells; various doses, 6 h): equally toxic to cancer cells
efficacy in immune competent versus adaptive immunity deficient mice (E0771 cancer cells): more efficacious than adaptive immunity deficient mice
dependence of killing on uptake (Cancer cells): internalization is required to kill cancer cells
tumor growth [1]: slows tumor growth
